According to patent US20250163127A1 (published 2025):

T1: TIGIT (human, UniProt Q495A1)
T1 sequence: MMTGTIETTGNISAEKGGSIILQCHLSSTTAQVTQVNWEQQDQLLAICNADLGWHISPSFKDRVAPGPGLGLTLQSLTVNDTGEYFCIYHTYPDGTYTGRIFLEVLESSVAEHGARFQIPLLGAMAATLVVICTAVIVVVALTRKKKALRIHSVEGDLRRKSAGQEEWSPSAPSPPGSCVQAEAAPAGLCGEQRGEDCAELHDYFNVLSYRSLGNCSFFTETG

B1: PD-L1 303-ICOSL 2264-Fc + Fc (Fc fusion)
chain 1: FTVTVPKDLYVVEYGSNMTIECKFPVEKQLDLAALIVYWEMEGKDIIQFVHGEEDQKAQHSSYRQRARLLKDQLSLGNAALQITDVKLQDAGVYRCMISYGGGADYKRITVKVNAGSGGGSGGGGSGGGGSDTQEKEVRAMVGSDVELSCACPEGSRFDLNDVYVYWQTSESKTVVTYHIPQHSSLEYVDSRYRNRALMSPAGMLRGDFSLRLFNVTPQDEQKFHCLVLSRSLGFQEVLSVEVTLHVAANFSVGGGGSGSGGGGSEPKSSDKTHTCPPCPAPEAEGAPSVFLFPPKPKDTLMISRTPEVTCVVVDVSHEDPEVKFNWYVDGVEVHNAKTKPREEQYNSTYRVVSVLTVLHQDWLNGKEYKCKVSNKALPAPIEKTISKAKGQPREPQVYTLPPCREEMTKNQVSLWCLVKGFYPSDIAVEWESNGQPENNYKTTPPVLDSDGSFFLYSKLTVDKSRWQQGNVFSCSVMHEALHNHYTQKSLSLSPGK
chain 2: HMSSVSAQAAAEPKSSDKTHTCPPCPAPEAEGAPSVFLFPPKPKDTLMISRTPEVTCVVVDVSHEDPEVKFNWYVDGVEVHNAKTKPREEQYNSTYRVVSVLTVLHQDWLNGKEYKCKVSNKALPAPIEKTISKAKGQPREPQVCTLPPSREEMTKNQVSLSCAVKGFYPSDIAVEWESNGQPENNYKTTPPVLDSDGSFFLYSKLTVDKSRWQQGNVFSCSVMHEALHNHYTQKSLSLSPGK
B2: PD-L1 303-ICOSL 2264-Fc (Fc fusion)
chain: FTVTVPKDLYVVEYGSNMTIECKFPVEKQLDLAALIVYWEMEGKDIIQFVHGEEDQKAQHSSYRQRARLLKDQLSLGNAALQITDVKLQDAGVYRCMISYGGGADYKRITVKVNAGSGGSGGGGSGGGGSDTQEKEVRAMVGSDVELSCACPEGSRFDLNDVYVYWQTSESKTVVTYHIPQHSSLEYVDSRYRNRALMSPAGMLRGDFSLRLFNVTPQDEQKFHCLVLSRSLGFQEVLSVEVTLHVAANFSVGGGGSGSGGGGSEPKSSDKTHTCPPCPAPEAEGAPSVFLFPPKPKDTLMISRTPEVTCVVVDVSHEDPEVKFNWYVDGVEVHNAKTKPREEQYNSTYRVVSVLTVLHQDWLNGKEYKCKVSNKALPAPIEKTISKAKGQPREPQVYTLPPSRDELTKNQVSLTCLVKGFYPSDIAVEWESNGQPENNYKTTPPVLDSDGSFFLYSKLTVDKSRWQQGNVFSCSVMHEALHNHYTQKSLSLSPG
B3: PD-L1 303-ICOSL 2264-COMP (other)
chain: FTVTVPKDLYVVEYGSNMTIECKFPVEKQLDLAALIVYWEMEGKDIIQFVHGEEDQKAQHSSYRQRARLLKDQLSLGNAALQITDVKLQDAGVYRCMISYGGGADYKRITVKVNAGGGGSGGGGSGGGGSDTQEKEVRAMVGSDVELSCACPEGSRFDLNDVYVYWQTSESKTVVTYHIPQHSSLEYVDSRYRNRALMSPAGMLRGDFSLRLFNVTPQDEQKFHCLVLSRSLGFQEVLSVEVTLHVAANFSVGGGGSGGGGSGGGGSDLGPQMLRELQETNAALQDVRELLRQQVREITFLKNTVMECDACGDYKDDDDKHHHHHH
B4: PD-L1 303-ICOSL 2264 (SEQ ID NO 3496) (other)
chain: FTVTVPKDLYVVEYGSNMTIECKFPVEKQLDLAALIVYWEMEGKDIIQFVHGEEDQKAQHSSYRQRARLLKDQLSLGNAALQITDVKLQDAGVYRCMISYGGGADYKRITVKVNAGSGGSGGGGSGGGGSDTQEKEVRAMVGSDVELSCACPEGSRFDLNDVYVYWQTSESKTVVTYHIPQHSSLEYVDSRYRNRALMSPAGMLRGDFSLRLFNVTPQDEQKFHCLVLSRSLGFQEVLSVEVTLHVAANFSVDYKDDDDKHHHHHH
B5: PD-L1 303-ICOSL 2264-ICOSL 2264-PD-L1 303 (other)
chain: FTVTVPKDLYVVEYGSNMTIECKFPVEKQLDLAALIVYWEMEGKDIIQFVHGEEDQKAQHSSYRQRARLLKDQLSLGNAALQITDVKLQDAGVYRCMISYGGGADYKRITVKVNAGGGGSGGGGSGGGGSDTQEKEVRAMVGSDVELSCACPEGSRFDLNDVYVYWQTSESKTVVTYHIPQHSSLEYVDSRYRNRALMSPAGMLRGDFSLRLFNVTPQDEQKFHCLVLSRSLGFQEVLSVEVTLHVAANFSVGGGGSGGGGSGGGGSDTQEKEVRAMVGSDVELSCACPEGSRFDLNDVYVYWQTSESKTVVTYHIPQHSSLEYVDSRYRNRALMSPAGMLRGDFSLRLFNVTPQDEQKFHCLVLSRSLGFQEVLSVEVTLHVAANFSVGSGGSGGGGSGGGGSFTVTVPKDLYVVEYGSNMTIECKFPVEKQLDLAALIVYWEMEGKDIIQFVHGEEDQKAQHSSYRQRARLLKDQLSLGNAALQITDVKLQDAGVYRCMISYGGGADYKRITVKVNADYKDDDDKHHHHHH
B6: PD-L1 303-CD58 3650-Fc (Fc fusion)
chain: FTVTVPKDLYVVEYGSNMTIECKFPVEKQLDLAALIVYWEMEGKDIIQFVHGEEDQKAQHSSYRQRARLLKDQLSLGNAALQITDVKLQDAGVYRCMISYGGGADYKRITVKVNAGGGGSGGGGSGGGGSSQQIYGVVYGNVTFHVPSNVPLKEVLWKKQKDKVAELENSEFRAFSSFKNRVYLDTVSGSLTIYNLTSSDEDEYEMESPNITDTMKFFLYVLESGSGGGGSEPKSSDKTHTCPPCPAPEAEGAPSVFLFPPKPKDTLMISRTPEVTCVVVDVSHEDPEVKFNWYVDGVEVHNAKTKPREEQYNSTYRVVSVLTVLHQDWLNGKEYKCKVSNKALPAPIEKTISKAKGQPREPQVYTLPPSRDELTKNQVSLTCLVKGFYPSDIAVEWESNGQPENNYKTTPPVLDSDGSFFLYSKLTVDKSRWQQGNVFSCSVMHEALHNHYTQKSLSLSPG
B7: CD58 3650-CD58 3650-PD-L1 303-PD-L1 303 (other)
chain: SQQIYGVVYGNVTFHVPSNVPLKEVLWKKQKDKVAELENSEFRAFSSFKNRVYLDTVSGSLTIYNLTSSDEDEYEMESPNITDTMKFFLYVLESGGGGSGGGGSGGGGSSQQIYGVVYGNVTFHVPSNVPLKEVLWKKQKDKVAELENSEFRAFSSFKNRVYLDTVSGSLTIYNLTSSDEDEYEMESPNITDTMKFFLYVLESGGGGSGGGGSGGGGSFTVTVPKDLYVVEYGSNMTIECKFPVEKQLDLAALIVYWEMEGKDIIQFVHGEEDQKAQHSSYRQRARLLKDQLSLGNAALQITDVKLQDAGVYRCMISYGGGADYKRITVKVNAGSGGSGGGGSGGGGSFTVTVPKDLYVVEYGSNMTIECKFPVEKQLDLAALIVYWEMEGKDIIQFVHGEEDQKAQHSSYRQRARLLKDQLSLGNAALQITDVKLQDAGVYRCMISYGGGADYKRITVKVNAGSGGGGSDYKDDDDKHHHHHH
B8: PD-L1 303-PD-L1 303-CD58 3650-CD58 3650 (other)
chain: FTVTVPKDLYVVEYGSNMTIECKFPVEKQLDLAALIVYWEMEGKDIIQFVHGEEDQKAQHSSYRQRARLLKDQLSLGNAALQITDVKLQDAGVYRCMISYGGGADYKRITVKVNAGGGGSGGGGSGGGGSFTVTVPKDLYVVEYGSNMTIECKFPVEKQLDLAALIVYWEMEGKDIIQFVHGEEDQKAQHSSYRQRARLLKDQLSLGNAALQITDVKLQDAGVYRCMISYGGGADYKRITVKVNAGGGGSGGGGSGGGGSSQQIYGVVYGNVTFHVPSNVPLKEVLWKKQKDKVAELENSEFRAFSSFKNRVYLDTVSGSLTIYNLTSSDEDEYEMESPNITDTMKFFLYVLESGSGGSGGGGSGGGGSSQQIYGVVYGNVTFHVPSNVPLKEVLWKKQKDKVAELENSEFRAFSSFKNRVYLDTVSGSLTIYNLTSSDEDEYEMESPNITDTMKFFLYVLESGSGGGGSDYKDDDDKHHHHHH
B9: CD58 3650-PD-L1 303-PD-L1 303-CD58 3650 (other)
chain: SQQIYGVVYGNVTFHVPSNVPLKEVLWKKQKDKVAELENSEFRAFSSFKNRVYLDTVSGSLTIYNLTSSDEDEYEMESPNITDTMKFFLYVLESGGGGSGGGGSGGGGSFTVTVPKDLYVVEYGSNMTIECKFPVEKQLDLAALIVYWEMEGKDIIQFVHGEEDQKAQHSSYRQRARLLKDQLSLGNAALQITDVKLQDAGVYRCMISYGGGADYKRITVKVNAGGGGSGGGGSGGGGSFTVTVPKDLYVVEYGSNMTIECKFPVEKQLDLAALIVYWEMEGKDIIQFVHGEEDQKAQHSSYRQRARLLKDQLSLGNAALQITDVKLQDAGVYRCMISYGGGADYKRITVKVNAGSGGSGGGGSGGGGSSQQIYGVVYGNVTFHVPSNVPLKEVLWKKQKDKVAELENSEFRAFSSFKNRVYLDTVSGSLTIYNLTSSDEDEYEMESPNITDTMKFFLYVLESGSGGGGSDYKDDDDKHHHHHH
B10: CD58 3650-PD-L1 303-Fc (Fc fusion)
chain: SQQIYGVVYGNVTFHVPSNVPLKEVLWKKQKDKVAELENSEFRAFSSFKNRVYLDTVSGSLTIYNLTSSDEDEYEMESPNITDTMKFFLYVLESGGGGSGGGGSGGGGSFTVTVPKDLYVVEYGSNMTIECKFPVEKQLDLAALIVYWEMEGKDIIQFVHGEEDQKAQHSSYRQRARLLKDQLSLGNAALQITDVKLQDAGVYRCMISYGGGADYKRITVKVNAGSGGGGSEPKSSDKTHTCPPCPAPEAEGAPSVFLFPPKPKDTLMISRTPEVTCVVVDVSHEDPEVKFNWYVDGVEVHNAKTKPREEQYNSTYRVVSVLTVLHQDWLNGKEYKCKVSNKALPAPIEKTISKAKGQPREPQVYTLPPSRDELTKNQVSLTCLVKGFYPSDIAVEWESNGQPENNYKTTPPVLDSDGSFFLYSKLTVDKSRWQQGNVFSCSVMHEALHNHYTQKSLSLSPG
B11: CD 155 665 G4S FLAGHis (ligand)
chain: WPPPGTGDVVVQAPTQVSGFLGDSVTLPCYLQVPNMEVTHVSQLTWARHGESGSMAVFHQTQGPWYAESKRLEFVAARLGAELRNASLRVFGLRAEDEGNYTCQFVTFPQRSRSVDIWLRVLGGGGSDYKDDDDKHHHHHH

target: CD28 (human, UniProt P10747); assay: cell-based or functional assay

Question: B1 was tested. Which “% CD25 Hi FoxP3 +” value did it give?
Answer: 29.8 % at 100 nM

Question: For B2, which “% CD25 Hi FoxP3 +” value is on record?
Answer: 6.6 % at 100 nM

Question: How did the “% CD25 Hi FoxP3 +” value turn out when B3 was run?
Answer: 21 % at 100 nM

Question: Which “% CD25 Hi FoxP3 +” value does the source give for B4 here?
Answer: 21.7 % at 100 nM

Question: With B5 as the binder, how does the “% CD25 Hi FoxP3 +” value read?
Answer: 0.89 % at 100 nM

target: T2, PD-1 (human, UniProt Q15116); assay: cell-based or functional assay

Question: With B1 as the binder, how does the “% CD25 Hi FoxP3 +” value read?
Answer: 29.8 % at 100 nM

Question: How did the “% CD25 Hi FoxP3 +” value turn out when B2 was run?
Answer: 6.6 % at 100 nM

Question: Which “% CD25 Hi FoxP3 +” value does the source give for B3 here?
Answer: 21 % at 100 nM

Question: For B4, which “% CD25 Hi FoxP3 +” value is on record?
Answer: 21.7 % at 100 nM

Question: Which “% CD25 Hi FoxP3 +” value does the source give for B5 here?
Answer: 0.89 % at 100 nM

target: T2, PD-1; assay: cell-based or functional assay; remark: another data set of the same source

Question: With B6 as the binder, how does the “100 nM IFN-gamma (pg/mL), SEB assay” value read?
Answer: 9820 pg/mL

Question: With B7 as the binder, how does the “100 nM IFN-gamma (pg/mL), SEB assay” value read?
Answer: 6030 pg/mL

Question: How did the “100 nM IFN-gamma (pg/mL), SEB assay” value turn out when B8 was run?
Answer: 8620 pg/mL

Question: With B9 as the binder, how does the “100 nM IFN-gamma (pg/mL), SEB assay” value read?
Answer: 16200 pg/mL

Question: With B10 as the binder, how does the “100 nM IFN-gamma (pg/mL), SEB assay” value read?
Answer: 5440 pg/mL

target: T1, TIGIT; assay: cell-based or functional assay

Question: For B11, which “100 nM IFN-gamma (pg/mL), SEB assay” value is on record?
Answer: 10300 pg/mL

target: CD2 (human, UniProt P06729); assay: cell-based or functional assay

Question: For B6, which “100 nM IFN-gamma (pg/mL), SEB assay” value is on record?
Answer: 9820 pg/mL

Question: How did the “100 nM IFN-gamma (pg/mL), SEB assay” value turn out when B7 was run?
Answer: 6030 pg/mL

Question: B8 was tested. Which “100 nM IFN-gamma (pg/mL), SEB assay” value did it give?
Answer: 8620 pg/mL

Question: How did the “100 nM IFN-gamma (pg/mL), SEB assay” value turn out when B9 was run?
Answer: 16200 pg/mL

Question: How did the “100 nM IFN-gamma (pg/mL), SEB assay” value turn out when B10 was run?
Answer: 5440 pg/mL
